Fewer inactive variants are shown than the library holds.
B1: TPR 5TU (parent)
chain: GGAUCUUCUCGAUCUAACAAAAAAGACAAAUCUGCCACAAAGCUUGAGAGCAUCUUCGGAUGCAGAGGCGGCAGCCUUCGGUGGCGCGAUAGCGCCAACGUUCUCAACUAUGACACGCAAAACGCGUGCUCCGUUGAAUGGAGUUUAUCAUG

Variants of: B1
Test: polymerase ribozyme fitness, log enrichment relative to wild type (log ratio); higher = more active; in vitro selection for triplet polymerase activity
Method in brief: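 Fitness measures genotype enrichment against wild-type enrichment on a logarithmic scale, with inverse-variance-weighted averaging of replicates. The logarithm is base 2, and genotypes were kept only with ≥10 input reads and ≥1 read per output in Illumina sequencing. The sequenced libraries came from one triplicate in vitro selection round, including frozen incubation at −7 °C, of PCR-built, transcribed mutant libraries of each subunit of a heterodimeric triplet polymerase ribozyme.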

Variant	polymerase ribozyme fitness (log ratio)
GGAUCUUCUCGAUCUAACAAAAAAGACAAAUCUGCCACAAAGCUUGAGAGCAACUUCGGAUGCAGAGGCCGCAGCCUUCGGUGGCGCGAUAGCGCCAACGUUCUCAACUAUGAAACGCAAAACGCGUGCUCCGUUGAAUGGAGUUUAUCAUG [U53A G70C C114A]	≤ -4.2
GGAUCUUCUCGAUCUAACAAAAAAGACAAAUCUGCCACAAAGCUUGAGAGCAACUUCCGAUGCAGAGGCGGCAGCCUUCGGUGGCGCGAUAGCGCCAACGUUCUCAACUAUGACACGCAAAACGCGUGCUCCGUUGAAUGGAGUUUAUCAUG [U53A G58C]	-1.52
GGAUCUUCUCGAUCUAACAAAAAAGACAAAUCUGCCACAAAGCUUGAGAGCAACUUCAGAUGCAGAGGCGGCAGCCUUCGGUGGCGCGAUAGCGCCAACGUUCUCAACUAUGACACGCAAAACGCGUGCUCCGUUGAAUGGAGUUUAUCAUG [U53A G58A]	-0.0533
GGAUCUUCUCGAUCUAACAAAAAAGACAAAUCUGCCACAAAGCUUGAGAGCAACUUCGGAUGCAGAGUCGGCAGCGUUCGGUGGCGCGAUAGCGCCAACGUUCUCAACUAUGACACGCAAAACGCGUGCACUGUUAAAUGGUGUUUAUCAUG [U53A G68U C76G U130A C132U G136A A142U]	≤ -4.2
GGAUCUUCUCGAUCUAACAAAAAAGACAAAUCUGCCACAAAGCUUGAGAGCAACUUCAGAUGCAGAGGCGACAGCCUUCGGUGGCGCGAUAGCGCCAACGUUCUCAACUAUGACACGCAAAACGCAUGCUCCGUGGAAUGGAGUUUAUCAUG [U53A G58A G71A G126A U135G]	≤ -4.2
GGAUCUUCUCGAUCUAACAAAAAAGACAAAUCUGCCACAAAGCUUGAGAGCAACUUCGGAUGCAGAGGCGGCAGCCUUCGGUCGCGCGAUAGCGUCCACAUUCUCAACUAUGACAGGCAAAACGCGUGCUCCGUUGAAUGGAGUUUAUCAUG [U53A G83C C95U A97C G100A C116G]	≤ -4.2
GGAUCUUCUCGAUCUAACAAAAAAGACAAAUCUGCCACAAAGCUUGAGAGCAACUUCGGAUGCAGAGGCGGCAGCCUUCGGUCGCGCGAUAGCUCCGACGGGCUCAACUAUGACAAGCAAAACGCGUGCUCCGUUGAAUUGAGUUUAUCAUG [U53A G83C G94U A97G U101G U102G C116A G140U]	≤ -4.2
GGAUCUUCUCGAUCUAACAAAAAAGACAAAUCUGCCACAAAGCUUGAGAGCAACUUCGCAUGCAGAGGCGGCAGCGUUCGGUGGUGCGCUAGCGCCCACGUUCUCAUCUAUGACACUCAAAACGCGUGCUCCAUUGAAGGGAGUUUAUCAUG [U53A G59C C76G C85U A89C A97C A107U G117U G133A U139G]	≤ -4.2
GGAUCUUCUCGAUCUAACAAAAAAGACAAAUCUGCCACAAAGCUUGAGAGCAACUUCCGAUGCAGAGGCGGCUGCCUUCGGUGGCGCGAUAGCGACAACGUUCUCAACUAUGACACGCAAAACGCGUGCUCCGUUGAAUGGAGUUUAUCAUG [U53A G58C A73U C95A]	≤ -4.2
GGAUCUUCUCGAUCUAACAAAAAAGACAAAUCUGCCACAAAGCUUGAGAGCAACUUCGAAUGCAGAGGCGGCAGCCUUCGGUGUCGCGAUAGCGCCAACGUUCUCAACUAUGACACGCAAAACGCGUGCUCCGUUGAAUGGAGUUUAUCAUG [U53A G59A G84U]	-1.32
GGAUCUUCUCGAUCUAACAAAAAAGACAAAUCUGCCACAAAGCUUGAGAGCAACUUCGGAUGCAGAGGCGGCAGCCUUCGGUAGCGCGAUAGCGCCAACGUUCUCAACUAUGACACGAAAAACGCGUGCUCCGUUGAAUGGAGUUUAUCAUG [U53A G83A C118A]	-1.88
GGAUCUUCUCGAUCUAACAAAAAAGACAAAUCUGCCACAAAGCUUGAGAGCAACUUCGGAUGCAGAGGCGGCAGCCUUCUGUGGCGCGAUAGCGCAAACGUUCUCAACUAUGACACGCAAAACGCGUGCUCCGUUGAAUGGAAUUCAUGAUG [U53A G80U C96A G143A U146C C149G]	≤ -4.2
GGAUCUUCUCGAUCUAACAAAAAAGACAAAUCUGCCACAAAGCUUGAGAGCAACUUCGGAUGCAGAGGCGGCAGCCUUCGGUCGCGCGAUAGCGCCAACGUUCUCAACUAUGACACGCAAAACGCGUGCUCCGUUGAAUGGAGUUUAUCAUG [U53A G83C]	-2.61
GGAUCUUCUCGAUCUAACAAAAAAGACAAAUCUGCCACAAAGCUUGAGAGCAACUUCGGAUGCAGAGGCGGCAGCCUUCGAUGGAGCGAUAGCGCCAACGUUCUCAACUAUGACACGCAAAACGCGUGCUUCGUUGAAUGGAGUUUAUCAUG [U53A G81A C85A C131U]	-4.19
GGAUCUUCUCGAUCUAACAAAAAAGACAAAUCUGCCACAAAGCUUGAGAGCAACUUCGGAUGCAGAGGCGGCAGCCUUCCGUGGCGCGAUAGCGCCAACGUUCUCCACUAUGACACGCAAAACGUGUGCUCCGUUGAAUGGAGUUUAUCAUG [U53A G80C A106C C125U]	≤ -4.2
GGAUCUUCUCGAUCUAACAAAAAAGACAAAUCUGCCACAAAGCUUGAGAGCAACUUCAGAUGCAGAGGCGGCAGCCUUCAAUGGCGUGAUAGCGCCAACGUUCUCAACUAUGACACGCAAAACGCGUGCUCCGUUGAAUGGAGUUUAUCAUG [U53A G58A G80A G81A C87U]	-2.31
GGAUCUUCUCGAUCUAACAAAAAAGACAAAUCUGCCACAAAGCUUGAGAGCAACUUCGGAUGCAGAGGCGGCAGCCUUCGGUGGCACGAUAGCGCCAACGUUCUCAACUAUGACACGCAAAACGCGUGCUCCGUUGAAUGGAGUUUAUCAUG [U53A G86A]	-2.07
GGAUCUUCUCGAUCUAACAAAAAAGACAAAUCUGCCACAAAGCUUGAGAGCAACUUCGGAUGCAGAGGCGGCAGCCUUCGCUGGCGUGAUAGCGCCAACGUUCUCAACUAUGACACGCAAAAAGCGUGCUCCGUUGAAUGGAGUUUAUCAUG [U53A G81C C87U C123A]	-1.74
GGAUCUUCUCGAUCUAACAAAAAAGACAAAUCUGCCACAAAGCUUGAGAGCAACUUCGGAUGCAGAGGCGGCAGCCUUCGGUGGCGCGAUAUCGCCAACGUUCUCAUCUAUGACACGCAAAACGCGUGCUCCGUUUAAUGGAGUUUAUCAUG [U53A G92U A107U G136U]	≤ -4.2

Variant	polymerase ribozyme fitness (log ratio)
GGAUCUUCUCGAUCUAACAAAAAAGACAAAUCUGCCACAAAGCUUGAGAGCAACUUCGGAUGCAGAGGCAGCAGCCUUCGGUGGCGCGAUAGCGCCAAAGUUCUCAACUAUGACACGCAAAACCCGUGCUCCGUUGAAUGGAGUUUAUCAUG [U53A G70A C99A G124C]	≤ -4.2
GGAUCUUCUCGAUCUAACAAAAAAGACAAAUCUGCCACAAAGCUUGAGAGCAACUUCGCAUGCAGAGGCGGCAGCCUUCGGUGGUGCGAUAGCGCCAACGUUCUCAACUAUGACACGCAAAACGCGUGCUCCGUAGAAUGGAGUUUAUCAUG [U53A G59C C85U U135A]	-0.238
GGAUCUUCUCGAUCUAACAAAAAAGACAAAUCUGCCACAAAGCUUGAGAGCAACUUCGGAUGCAGAGGCGGCAGCCUUCCGUGGCGCGAUAGCGCCAACGUUCUCAACUAUGACACGCAAAACGCGUGCUCCGUUGAAUGGAUUUUAUCAUG [U53A G80C G143U]	≤ -4.2
GGAUCUUCUCGAUCUAACAAAAAAGACAAAUCUGCCACAAAGCUUGAGAGCAACUUCGGAUCCAGAGGCGGCAGCCUUCGGUGGCGCGAUAGAGCCAACGUUCUCAACUAUGACACGGAAAACGCGUGCUCCAUUGAAUGGAGUUUAUCAUG [U53A G62C C93A C118G G133A]	≤ -4.2
GGAUCUUCUCGAUCUAACAAAAAAGACAAAUCUGCCACAAAGCUUGAGAGCAACUUCGGAUGCAGAGGCGGCAGCCUUCGAUGGCGCGAUAGCGUCAACGUUCUCAACUAUGACACGCACAACGCGUGCUCCGUUGAAUGGAGGUUAUCAUG [U53A G81A C95U A120C U144G]	-1.05
GGAUCUUCUCGAUCUAACAAAAAAGACAAAUCUGCCACAAAGCUUGAGAGCAACUUCCGAUGCAGAGGCGGCAGCCUUCGGUGGCGCGAUAGCGCCAACGUUCUCAACUAUGACACGCAAAACGCGUGCUCCGUUGAAUGGAGUUUAUCUUG [U53A G58C A150U]	0.575
GGAUCUUCUCGAUCUAACAAAAAAGACAAAUCUGCCACAAAGCUUGAGAGCAACUUCGGAUACAGAGGCGGCAGCCUUCGGUGGCUCGAUAGCGCCAACGUUCUCAACUAUGACACGCAAAACGCGUGCUCCGUUGAAUGGAGUUUAUCAUG [U53A G62A G86U]	-2.24
GGAUCUUCUCGAUCUAACAAAAAAGACAAAUCUGCCACAAAGCUUGAGAGCAACUUCGGAUGCAGAGGCGGCAGCCUUCGGUGGCGCGAUAUCGCCAACGUUAUCAACUAUGACACGCAAAACGCGUGCUCCGUUGAAUGGAGUUUAUCAUG [U53A G92U C103A]	-2.78
GGAUCUUCUCGAUCUAACAAAAAAGACAAAUCUGCCACAAAGCUUGAGAGCAACUUCUGAUGCAGAGGCGGCAGCCUUCGGUGGCGCGAUAGCGACAACGUUCUCAACUAUGACACGCAAAACGCGUGCUCCGUUGAAUGGAGAUUAUAAUG [U53A G58U C95A U144A C149A]	≤ -4.2
GGAUCUUCUCGAUCUAACAAAAAAGACAAAUCUGCCACAAAGCUUGAGAGCAACUUCGGAUGCAGAGGCGGCAGCCUUCGGUAGCGCGAUAGCGCCAACGUUCUCAACUAUGAUACGCAAAACGCGUGCUCCGUUGAAUGGAGUUUAUCAUG [U53A G83A C114U]	-3.28
GGAUCUUCUCGAUCUAACAAAAAAGACAAAUCUGCCACAAAGCUUGAGAGCAACUUCGGAUGCAGAGGCGGCAGCCUUCGUUGGCGCAAUAGCGCCAACGUUCUCAACUAUGACGCGCAAAACGCGUGCUCCGUUGAAUGGAGUUUUUCAUG [U53A G81U G88A A115G A147U]	≤ -4.2
GGAUCUUCUCGAUCUAACAAAAAAGACAAAUCUGCCACAAAGCUUGAGAGCAACUUCGGAUGCAGAGGCGGCAGCCUUCGGUGGCGCGAUAACGCCAACGUUCUCAACUAUGACACGCAAAACGCGUGCUCCGUUGAAUGGAGUUUAUCAUG [U53A G92A]	-3.87
GGAUCUUCUCGAUCUAACAAAAAAGACAAAUCUGCCACAAAGCUUGAGAGCAACUUCAGAUGCAGAGGCGGCUGACUUCGGUGGCGCGUUAUCGCCAACGUUCUCAACUUUGACACGCAAAACGCUUGCUCCGUUGAAUAGAGUUUUUCAUG [U53A G58A A73U C75A A89U G92U A110U G126U G140A A147U]	≤ -4.2
GGAUCUUCUCGAUCUAACAAAAAAGACAAAUCUGCCACAAAGCUUGAGAGCAACUUCCGAUGCAGAGGCGGCAGCCUUCGGUGGCGCGAUAGCGCUAACGUUCUCAACUAUGACACGCAAAACGCGUGCUCCGUGGAAUGGAGUUUAUCAUG [U53A G58C C96U U135G]	-3.98
GGAUCUUCUCGAUCUAACAAAAAAGACAAAUCUGCCACAAAGCUUGAGAGCAACUUCGGAUGCAGAGGCGGCAGCCUUCGGUGGCGCCAUAGCGCCAACGUUCUCAACUAUGACACGCAAAACGCGUGCUCCGUUGAAUGGAGUUUAUCAUG [U53A G88C]	≤ -4.2
GGAUCUUCUCGAUCUAACAAAAAAGACAAAUCUGCCACAAAGCUUGAGAGCAACUUCGGAUGCAGAGGCGGCAGCCUUCGGUGGCGCGAUAGCACCAACGUUCUCAACUAUGACACGCAAAACGCGUGCUCCGUUGAAUGGAGUUUAUCAUG [U53A G94A]	-1.61
GGAUCUUCUCGAUCUAACAAAAAAGACAAAUCUGCCACAAAGCUUGAGAGCAACUUCGGAUGCAGAGGCGGCAGCCUUCAGUGGCGCGAUAGCGCCAACGUUCUCAACAAUGACACGCAAAAUGCGUGCUCCGUUGAAUGGGGUUUAUCAUG [U53A G80A U109A C123U A142G]	-3.11
GGAUCUUCUCGAUCUAACAAAAAAGACAAAUCUGCCACAAAGCUUGAGAGCAACUUCGGAUGCAGAGGCGGCAGCCUUCGGUGCCGCGAUAGCGCCAAAGUUCUCAACUAAGACACGCAAAACGCGUGCUCCGUUGAAUGGAGUUUAUCAUG [U53A G84C C99A U111A]	≤ -4.2
GGAUCUUCUCGAUCUAACAAAAAAGACAAAUCUGCCACAAAGCUUGAGAGCAACUUCGGAUGCAGAGGCGGCAGCCUUCGGUGGCGCGAUAGCACCAACGUUCUCAACUAUGACACGCAAAACGAGUGCUCCGUUGAACGGCGUUUAUCAUG [U53A G94A C125A U139C A142C]	≤ -4.2
